Assay results taken from paper PMC3097224, “Mth10b, a Unique Member of the Sac10b Family, Does Not Bind Nucleic Acid” (PLoS ONE, 2011).

Target: the molecule itself
Test: AUC; sedimentation velocity, 60000 rpm, 20°C, buffer F (50 mM Na2HPO4-NaH2PO4/pH 7.5), protein at 0.6 and 1.0 mg/mL, absorption at 238 nm

B1: Mth10b from Methanobacterium thermoautotrophicum ΔH (natural protein, UniProt O27527 2-91, looked up)
chain: SEENVVYIGNKPVMNYVLAVVTQMNGGTSEVILKARGIAISRAVDVAEIVRNRFIPDIQIENIDICTEEIIGNEGTATNVSAIEIQLRKD
notes: Mth10b, Sac10b family protein of Methanobacterium thermoautotrophicum ΔH, gene MTH1483; whole gene cloned with primers from the start codon to the stop codon; No tag (pET11a, NdeI/BamHI); also called MTH1483; source: Escherichia coli BL21 (DE3), pET11a, purified (Q Sepharose Fast Flow, Phenyl Sepharose High Performance, Resource-S)
- stoichiometry N: 2
